Reference: publication PMC8230527, “Structural and Biochemical Characterization of a Dye-Decolorizing Peroxidase from Dictyostelium discoideum” (International Journal of Molecular Sciences, 2021)

How the values were obtained:
[1] = molecular target: Dictyostelium discoideum dye-decolorizing peroxidase DyPA (Dictyostelium discoideum); assay: AUC; sedimentation velocity, 50,000 rpm, 20 °C, 50 mM Tris-HCl pH 8.0, 150 mM NaCl; 20 µM apo-DyPA with a heme saturation of only 7%
[2] = molecular target: Dictyostelium discoideum dye-decolorizing peroxidase DyPA (Dictyostelium discoideum); assay: AUC; sedimentation velocity, 50,000 rpm, 20 °C, 50 mM Tris-HCl pH 8.0, 150 mM NaCl; heme-reconstituted DyPA at 2.1, 6.3, 18.9 and 33.6 µM (monomer concentrations); dimer, no monomer-dimer equilibrium seen in this range

A stoichiometry N [1] of 2, a percent of the protein sedimenting as the dimer species [2] of 90% and a stoichiometry N [2] of 2 were found for “Dictyostelium discoideum dye-decolorizing peroxidase DyPA (enzyme)” in this work.
